# From the DeepSol protein solubility set
# Assay: soluble on expression in E. coli; label from the status in PepcDB or PDB records
row,Sequence,soluble on expression in E. coli
1,AHHHHHHGSGEKRKTRQAEVNIGMVGHVDHGKTTLTKALTGVWTDTHSEELRRGITIKIGFADAEIRRCSNCGRYSTSPICPYCGHETEFIRRVSFIDSPGHEALMTTMLAGASLMDGAILVIAANEPCPRPQTREHLMALQIIGQKNIIIAQNKIELVDKEKALENYRQIKEFIKGTVAENAPIIPISALHGANIDVLVKAIEEFIPTPKRDSNKPPKMLVLRSFDVNKPGTPPEKLVGGVLGGSIVQGKLKVGDEIEIRPGVPYEEHGRIKYEPITTEIVSLQAGGQFVEEAYPGGLVGIGTKLDPYLTKGDLMAGNVVGKPGKLPPVWTDLRLEVHLLERVVGTEQELNVEPIKRKEVLLLNVGTARTMGLVTALGKDEIELKLQIPVCAEPGERVAISRQIGSRWRLIGYGIIKE,not soluble
2,AHHHHHHGSGGMTIAEKILATHAGKEEVKPGEIVLAKVDFMFGNDVTTPLAIKTFRKIGVEKVFDPERIAIVLDHFTPNKDIKAAEQCKFSREFAREQGIKWFFEGGNVGVEHCLLPELGLVLPGELIIGADSHTCTYGALGAFATGVGSTDLAVAMATGEAWFRVPETIKFVYEGDLQPWVTSKDLILYTIGDIGVNGALYKVMEFSGEVIEKLSVEQRMTMTNMAIEAGAKTGIIEPDKKTIEYVKGRAKREYKIYKSDEDAKYYKVIEYDVSKIEPQVAFPHLPENTVPISKAAKMNIKIDQVVIGSCTNGRLEDLRMAAEVLEGQKVAPWVRLIILPCSPTVYFKAMKEGLLEIFLEAGAVIGPPTCGPCLGGHMGILASGERAVSTTNRNFVGRMGHPKSEVYLASPYVAAASAILGRIASPEEVVK,soluble
3,AHHHHHHGSKAPICEVCLKTEDILCPADEKKLEEGIITELDVKISRMLYKLLGDADVEFKKAVEAGDLIVLIVGEGDVPIVIGKGGKNIKYLTRELGKRVRVIESTDDVKKLAVDLLYPAGVFGVNVVYKPDGGQYYKVLVFSRDKSKLPEKSEVLESILTQITGVETKISFI,soluble
4,AHHHHHHGSKILAIAPNISRPYLGPAAVVHNTLKGFIKINKELEREDIEITFLSINDKIKSKKLTDNINIIGTKRFPPVTFTGEIQALFVSRKLEKPDLVHSHDLYEIFPWILKKIPTIFTLHGIVWKEKMFTKSLYAKLWYYLYEKRLRAYHKKFTKFVAISP,not soluble
5,AHHHHHHGSKKFPAYLASWEDIENWAKAGAWKVLESGWMPDVIVGLARGGWIAARLYCDYLGVKDLVSIKVEHWGVTATPDGRARLKYGAQYDFEGKKVLIVDDITDTGESMSLAYEYMKSRNPAEIRTATLLNIKGSKFVPDYYAKDIDWVWVVFPWNFVEDMINLTNNLFEEKDKLTTDEIISLFKELHGIEVPREKLEEALRMAEKRKIFKFENGFWTKV,soluble
6,AHHHHHHGSNTEKYLAKGLEDVYIDQTNICYIDGKEGKLYYRGYSVEELAELSTFEEVVYLLWWGKLPSLSELENFKKELAKSRGLPKEVIEIMEALPKNTHPMGALRTIISYLGNIDDSGDIPVTPEEVYRIGISVTAKIPTIVANWYRIKNGLEYVPPKEKLSHAANFLYMLHGEEPPKEWEKAMDVALILYAEHEINASTLAVMTVGSTLSDYYSAILAGIGALKGPIHGGAVEEAIKQFMEIGSPEKVEEWFFKALQQKRKIMGAGHRVYKTYDPRARIFKKYASKLGDKKLFEIAERLERLVEEYLSKKGISINVDYWSGLVFYGMKIPIELYTTIFAMGRIAGWTAHLAEYVSHNRIIRPRLQYVGEIGKKYLPIELRR,not soluble
7,AHHHHHHGSYEVTKFGGEGKRLEDYREIIGDEALEAIKAKAENLKDKSFVHVNSTSFGGGVAEILHNLVPLMRDVGIDARWFVIEGTNEFFNVTKSFHNALQGNKELRLTEEMKKLYLEINKKNAEDIDLTQFDYVLIHDPQPAPLIEFYEKRQPWIWRCHIDLSDPNLEFWKFLRQFVEKYDRYIFHMEEYVQEDLNQEKVVIMPPSIDPLSEKNMELSESEILKTLERFDVDPERPIITQVARFDPWKGVFDVIDVYRKVKEKIPEVQLLLVGVMAHDDPEGWIYFEKTLRKIGEDYDIKVLTNLTGVHAREVNAFQRASDVILQMSIREGFGLTVTEAMWKEKPVVGRAVGGIKLQIVDGKTGFLVKDVNDAIEKTLYLLEHKDVAQEMGKNAKERIKENFIITKHLERYLDLLNSF,soluble
8,AHKLFIGGLPNYLNDDQVKELLTSFGPLKAFNLVKDSATGLSKGYAFCEYVDINVTDQAIAGLNGMQLGDKKLLVQRASVGAKNA,soluble
9,AIAAHVRTYNPRVRVGNWKEDVTLEEETSKEFILQKDRGELTVQKEGALKQSILKPVSLSVSQDGFLHFGDTVMLVNCGDGGHMQRSPCVLSIIADSSNVTSHSQTNTGPHLLGPLQVGGAHSMDPCVRNTFIIISVDGSSDGEVVRYDQSFALKTTGGFAGELFLASDHKSFQKCAKKSRLQELSLVEEFDFLCWWKVLYFDPQDRLENEGYPVQVNNKVLISHCKTNQCLAALSNHILWSQFGKEYELTAHTFLDSHKAEQDNNHWLFSTAHPANQSQSLLQLQQEEHKENQEDTQVKDCS,soluble
10,AIAAHVSSETQDVSPKDELTASEASTRSPLCEHTFPGDSDLRSMIEEHAFQVLSQGSLLESPSYTVCVSEPDKDDDFLSLNFPRKLWKIVESDQFKSISWDENGTCIVINEELFKKEILETKAPYRIFQTDAIKSFVRQLNLYGFSKIQQNFQRSAFLATFLSEEKESSVLSKLHVFVFHHSLFGATFGEHHFQPCPLPSGNKAPISTWSGDSWLL,soluble
11,AIAARRNYQVERNKLEEKDPTWLMQKGQIQPLVSSLVVLNVEGERILARYTAKELFPTFDVEKKFEADLLKKSQTIPDLEERVFEHGQHIVVCRASEDLLFFVTSRIYENEVILSEVLTCWVDSLVKVLKNLPLNELNLLQHYEVLLLLVDELVDQEGVIMETDANELSSRTEFAMYSTDPRDLIPELTEQGFSHALQTAKQHLARTILK,soluble
12,AIAFILSAQRLSGTQVFRRLAEGCTGYSVSSGCRQRRRCCPGAPQRPRRVRVNALQLQSGLADPLDPKSEAEVREHLRSNSPAERALGINYARYLDESTRYDILLEMMEDTDPQVRYAAVTQLATVGSHDRQRTLKAVRKILWNTEEDASVRAGALTCWAVSGSTRPSQTWKSSSTSRRTGWCGSASSLL,soluble
13,AIALRADKPKCSIQNFFIPALGKDPNSRDNTTLNFMVRCDNPNKDKGIYYDDVHLNFSTINTTKINSSALVLVGNYTVPKFYQGHKKKAKKWGQVKPLNNQTVLRAVLPNGSAVFRLDLKTQVRFKIVFWKTKRYGVEVGADVEVNGDGVKAQKKGIKMKKS,soluble
14,AIARNDLFNREKSRQLSLTPRTEKIEVKHVGKTDPGTVFVMNKNISTPYSCAMHLSEWYCSKSILALVDGQPWDMYKPLTKSCEIKFLTFKDPDPREVNKAYWRSCAMMLGCVIERAFKDDYVVSLLRAPEVPVIAGAFCYDVTLDKRLDEWMPTKENLRSFTKDAHALIYRDLPFETLDVDARVALEIFQHNKYKVDFIEEKASQNPERIVKLHRIGDFIDVSEGPLIPRTSVCFQYEVSAVHNLNPSQPNLIRRFQGLSLPTHLRAQFTIWDKLVGRSRKMVTEDEVRQTENTESTQ,not soluble
15,AIASFITNPSIFSGLKLSNAQRKVKSDLECIRKSKLFQRKRIVPERRRLGLVACGTEEDRTHQRSQWGGEDSDYFGRDPRKETEFWMEHAKEVLESKEVADAVEAHKKSGSSNLTEEQKAWLEFARSITPKPEDEE,soluble
16,AIASRAASLRAELTSLANAFEEERISSAERLDADLVRQAVEQAKPENLEQWKQVVHDATAKLQQFWEDSEQALIRETYALATSYLRESDDEVHRLQMTKKALEEQLETERRRSTRIEEQLAALQSRLLDSAAPAATTPADDARTQQEVLRSELQGFMQELVRNQRESLRVLQEELQRVREEASVREENLLRQIAHLKTELAVARTDNEVSSRQLRQLETSAGREEVQDELGPGTIWPPHLTPRRGHRRFQRHNRLEDAPAPPEF,soluble
17,AIAVEVESDSVAERDRSSFLAGHDAIRLAKSCVDSPPERWYAALYQVYADLTKLRCWSNVEVVYSDSATFPTGLLGPLFEEDSMVQELHSAQCILGSERACFHVRCCIVGSPPSGRAINALSPQSETRTEERIITSRREPEVVIAVPMHAMLKLSNLDQALRMSSHIEGIVKNRHVADSSASTHSTDRQAGSRKSSVIFGFVDEDTTTAYYRIREGACESNDRREFSTDDIASCLAQERT,soluble
18,AIETETLVVGAGPGGYVAAIRAAQLGQKVTIVEKGNLGGVCLNVGCIPSKALISASHRYEQAKHSEEMGIKAENVTIDFAKVQEWKASVVKKLTGGVEGLLKGNKVEIVKGEAYFVDANTVRVVNGDSAQTYTFKNAIIATGSRPIELPNFKFSNRILDSTGALNLGEVPKSLVVIGGGYIGIELGTAYANFGTKVTILEGAGEILSGFEKQMAAIIKKRLKKKGVEVVTNALAKGAEEREDGVTVTYEANGETKTIDADYVLVTVGRRPNTDELGLEQIGIKMTNRGLIEVDQQCRTSVPNIFAIGDIVPGPALAHKASYEGKVAAEAIAGHPSAVDYVAIPAVVFSDPECASVGYFEQQAKDEGIDVIAAKFPFAANGRALALNDTDGFLKLVVRKEDGVIIGAQIIGPNASDMIAELGLAIEAGMTAEDIALTIHAHPTLGEIAMEAAEVAL,soluble
19,AIFGGDGFKDWIGEFSLFKELNEATEMFGKEDEEGTAATETEKADESTDGGMVKHDTNKAESLKKDKLSKEQREKLMEMEKKRREDMMKQVDELAEKLNEKISRYLIAVKSNNLEEFTRKLDQEIEDLKLESFGLELLYLLARVYKTKANNFIMSKKTYGISKIFTGTRDNARSVKSAYNLLSTGLEAQKAMEKMSEVNTDELDQYERAKFESTMAGKALGVMWAMSKFELERKLKDVCNKILNDKKVPSKERIAKAKAMLFIAHKFASARRSPEEAEEARVFEELILGEQEKEHKKHTVAR,not soluble
20,AIPAPTDLKFTQVTPTSLSAQWTPPNVQLTGYRVRVTPKEKTGPMKEINLAPDSSSVVVSGLMVATKYEVSVYALKDTLTSRPAQGVVTTLENVSPPRRARVTDATETTITISWRTKTETITGFQVDAVPANGQTPIQRTIKPDVRSYTITGLQPGTDYKIYLYTLNDNARSSPVVIDASTAIDAPSNLRFLATTPNSLLVSWQPPRARITGYIIKYEKPGSPPREVVPRPRPGVTEATITGLEPGTEYTIYVIALKNNQKSEPLIGRKKT,soluble
21,AKGDPHVLLTTSAGNIELELDKQKAPVSVQNFVDYVNSGFYNNTTFHRVIPGFMIQGGGFTEQMQQKKPNPPIKNEADNGLRNTRGTIAMARTADKDSATSQFFINVADNAFLDHGQRDFGYAVFGKVVKGMDVADKISQVPTHDVGPYQNVPSKPVVILSATVLP,soluble
22,AKIGLFYGTQTGVTQTIAESIQQEFGGESIVDLNDIANADASDLNAYDYLIIGCPTWGVGELQSDWEGIYDDLDSVNFQGKKVAYFGAGDQVGYSDNFQDAMGILEEKISSLGSQTVGYWPIEGYDFNESKAVRNNQFVGLAIDEDNQPDLTKNRIKTWVSQLKSEFGL,soluble
23,AKKIGIEQSLSDVEAALKEKGYDVVMMKSPADAQGCDCCVVTGLDNNVQGIADTVTQAPVITASGMTAEEICSEVESRIQ,not soluble
24,ALCAICGDRATGKHYGASSCDGCKGFFRRSVRKNHMYSCRFSRQCVVDKDKRNQCRYCRLKKCFRAGMKKEAVQNERD,soluble
